B1: CPT II variant P50H (Homo sapiens; P50H) (protein)
chain: SAGSGPGQYLQRSIVPTMHYQDSLHRLPIPKLEDTIRRYLSAQKPLLNDGQFRKTEQFCKSFENGIGKELHEQLVALDKQNKHTSYISGPWFDMYLSARDSVVLNFNPFMAFNPDPKSEYNDQLTRATNMTVSAIRFLKTLRAGLLEPEVFHLNPAKSDTITFKRLIRFVPSSLSWYGAYLVNAYPLDMSQYFRLFNSTRLPKPSRDELFTDDKARHLLVLRKGNFYIFDVLDQDGNIVSPSEIQAHLKYILSDSSPAPEFPLAYLTSENRDIWAELRQKLMSSGNEESLRKVDSAVFCLCLDDFPIKDLVHLSHNMLHGDGTNRWFDKSFNLIIAKDGSTAVHFEHSWGDGVAVLRFFNEVFKDSTQTPAVTPQSQPATTDSTVTVQKLNFELTDALKTGITAAKEKFDATMKTLTIDCVQFQRGGKEFLKKQKLSPDAVAQLAFQMAFLRQYGQTVATYESCSTAAFKHGRTETIRPASVYTKRCSEAFVREPSRHSAGELQQMMVECSKYHGQLTKEAAMGQGFDRHLFALRHLAAAKGIILPELYLDPAYGQINHNVLSTSTLSSPAVNLGGFAPVVSDGFGVGYAVHDNWIGCNVSSYPGRNAREFLQCVEKALEDMFDALEGKSIKS
notes: made in house; host or cells: Escherichia coli BL21Gold DE

How the values were obtained:
[1] = system: CPT II S113L; set-up: method as in PMID 27123472; details: in vitro; cited from earlier work
[2] = system: CPT II WT; set-up: method as in PMID 26477380; details: cited from earlier work
[3] = Onset of aggregation by scattered light back reflection during heating ramp; format: physicochemical; details: assay buffer; heating ramp 15 °C to 80 °C
Method: Supplementary materials can be found at https://www.mdpi.com/article/10.3390/ijms22094831/s1, Figure S1: Scattered light back reflection as measure for aggregation during the heating ramp from 15 °C to 80 °C of CPT II WT (black) and the variants P50H (red), S113L (blue) and Y479F (green) in assay buffer (magenta). The light scattering data were obtained simultaneously with nanoDSF data using the back reflection technology in a Prometheus NT.48 device. The unfolding of proteins leads to display of hydrophobic regions of the protein on the surface, which is followed by hydrophobic interaction of the protein molecules resulting in aggregation events. These aggregates are then detected via light scattering. […] The data allow the detection of onset of aggregation (Tagg) which differs clearly among the variants. The Tagg for WT is 38 °C, Y479F is 37 °C, S113L is 35 °C and P50H is 32 °C. […] Figure S2: The first derivatives of the transition curves of WT and the variants resulting from the ratio 350/330 nm were plotted against the temperature. The black, red, blue and green solid lines show the curves of WT and variants P50H, S113L and Y479F measured in assay buffer, respectively. The black, red, blue and green dashed lines show the maxima of the values of the first derivatives of the ratio 350 nm/330 nm of WT and variants P50H, S113L and Y479F, respectively. Figure S3: The effect of amino acid exchange in absence and presence of n-octyl-β-d-glucopyranoside (β-OG) on the stability of CPT II (1 mg/mL) assessed by nanoDSF. The TM of WT (37 °C) in buffer was used as reference value (ΔTM = 0 °C) to determine the ΔTM for the variants and the ΔTM for WT and variants in presence of β- OG. Error bars are SD derived from three independent experiments. Table S1. Comparison of the mean values of the half-lives (t1/2) of CPT II WT and the variants at 30 °C with the half-lives at 37, 40 or 42 °C. The differences of the half-lives for each CPT II enzyme between 37 and 40 or 42 °C as well as 40 and 42 °C are not significant. Number of experiments for each variant (n ≥ 3). Table S2. Comparison of the mean values of the half-lives (t1/2) between CPT II WT and the variants Y479F, S113L and P50H at 30, 37, 40 or 42 °C. n ≥ 3. Table S3. […] Comparison of the ∆TM-values of CPT II WT and the variants Y479F, S113L and P50H in buffer or in presence of 0.25 mM cardiolipin or 1% n-octyl-β-d-glucopyranoside (β-OG) assessed by nanoDSF (n ≥ 3). […] Comparison of the transition temperatures (TM) of WT and the variants Y479F, S113L and P50H in buffer with of 0.25 mM cardiolipin or 1% n-octyl-β-d-glucopyranoside (β-OG) assessed by nanoDSF (n ≥ 3). […]

[4] = nanoDSF thermostability of recombinant CPT II enzymes in assay buffer; format: physicochemical; details: assay buffer; 1 mg/mL protein; nanoDSF
Method: The protein stability was investigated applying nano differential scanning fluorimetry (nanoDSF) using a protein concentration of 1 mg/mL in assay buffer. […] The heating rate has been set to 1 °C per min. A heating ramp from 15 to 95 °C was determined. The nanoDSF data were obtained using a Prometheus NT.48 device. First derivatives were calculated using PR.ThermControl software (NanoTemper Technologies GmbH, Munich, Germany). Experiments were performed at least three times independently as double determination.

[5] = Thermosensitivity of enzyme activity of recombinant CPT II enzymes (activity half-life after incubation); format: physicochemical; details: 30 °C; 1 mg/mL enzyme
Method: To evaluate the enzyme behavior under different temperature conditions that are relevant under physiological conditions, we chose 30 (cold), 37 (normal), 40 (moderate fever) and 42 °C (high fever) for the experiments. The enzyme variants were expressed recombinantly in E. coli, carried a N-terminal histidine-tag and were purified by standard chromatography in the presence of a detergent (for experimental details, see Section 4.1 and Section 4.2). The impact of temperature was investigated by incubating purified CPT II variants at appropriate temperatures and determining their enzymatic activity after defined incubation periods. The enzyme assay was based on an adaptation of Rufer et al. for the transfer reaction of the palmitic acid from palmitoyl-CoA to L-carnitine (see Section 4.3).
Before activity measurements, the storage buffer of the enzymes was replaced with assay buffer (50 mM KH2PO4, 120 mM KCl, 1 mM EDTA-Na4) using vivaspin turbo 4 tubes (Satorius Stedim biotech GmbH, Göttingen, Germany) at 4 °C. […] After that, the protein concentration was determined using bicinchoninic acid (BCA) protein assay kit (Thermo Fisher Scientific GmbH, Berlin, Germany). […] The reverse reaction of CPT II was detected with the enzyme activity assay. […] The released CoA was then detected by the reaction of the free thiol group with DTNB, forming 5-mercapto-(2-nitrobenzoic acid). […]

[6] = substrate: C[N+](C)(C)C[C@H](O)CC(=O)[O-]; assay: Determination of the kinetic parameters kcat and KM; format: biochemical, human; details: other: P50H, L-carnitine varied, absence of CL, 25 °C
Method: Before activity measurements, the storage buffer of the enzymes was replaced with assay buffer (50 mM KH2PO4, 120 mM KCl, 1 mM EDTA-Na4) using vivaspin turbo 4 tubes (Satorius Stedim biotech GmbH, Göttingen, Germany) at 4 °C. The pH of assay buffer was adjusted with KOH to 7.4. The storage buffer was diluted at least 1:500 in assay buffer. In addition, before each experimental set up, the protein samples were centrifuged at 16,000× g for 5 min at 4 °C to remove any micro-aggregates. After that, the protein concentration was determined using bicinchoninic acid (BCA) protein assay kit (Thermo Fisher Scientific GmbH, Berlin, Germany). The enzyme activity of recombinant CPT II was performed following Rufer et al. with modifications described elsewhere. […] After pre-conditioning the mixture to 25 °C for 2 min, the reaction was started by adding 15 nM of recombinant enzyme. The reverse reaction of CPT II was detected with the enzyme activity assay. CPT II catalyzed the transfer of fatty acid residue from Pal-CoA to L-carnitine with release of CoA and Pal-carnitine. The released CoA was then detected by the reaction of the free thiol group with DTNB, forming 5-mercapto-(2-nitrobenzoic acid). This compound has a molar extinction coefficient of 13,600 M^−1 cm^−1 at a wavelength of 410 nm, and its formation was followed spectroscopically. […] The slope of the progress curve was used to determine the reaction velocity.
It is assumed that the reaction catalyzed by CPT II represents a ping-pong mechanism or compulsory order ternary-complex mechanism.
The kinetic parameters were determined by evaluating the obtained v/S characteristic according to the Michaelis–Menten Equation (1). The […] kcat was calculated using Equation (2):(1) v=Vmax∗[S]/KM+[S] (2) kcat=Vmax/cenzyme

Row | Molecule | Inhibition by malonyl-CoA [1] | Inhibition by malonyl-CoA [2] | Onset of aggregation (Tagg) [3] [°C] | TM in Buffer [4] [°C] | Time to complete loss of activity [5] [min] | Km [6] [mM] | kcat [6] [s⁻¹] | kcat/Km [6] [M⁻¹ s⁻¹]
1 | CC(C)(COP(=O)(O)OP(=O)(O)OC[C@H]1O[C@@H](n2cnc3c(N)ncnc32)[C@H](O)[C@@H]1OP(=O)(O)O)[C@@H](O)C(=O)NCCC(=O)NCCSC(=O)CC(=O)O [malonyl-CoA, Malonyl-CoA] | abnormal enzyme inhibition | not inhibited | – | – | – | – | – | –
2 | B1 | – | – | 32 | 26.2 ± 0.3 | ≤ 25 | 12.8 ± 2.7 | 138 ± 4.9 | 10800 ± 2600
